The results in this text go back to publication PMC3756924 (Molecular Biology of the Cell, 2013).

B2: hexahistidine (His6)-Sit4p (enzyme, S. cerevisiae, UniProt P20604 1-311, looked up)
chain: MVSRGPDEWLETIKKCQALTENEMKQLCEMVKELLMEESNIQPVQTPVTVCGDIHGQFHDLLELFRTAGGFPDDINYIFLGDYVDRGYYSLETFTLLMCLKVKYPAKITLVRGNHESRQITQVYGFYEECLNKYGSTTVWKYCCQVFDFLTLAAIIDGKILCVHGGLSPEIRMLDQIRVLSRAQEVPHEGGFSDLLWSDPDNVEAWQVSPRGAGWLFGSKVAREFNHVNGLNLIARAHQLVMEGFKYHFPEKDVVTVWSAPNYCYRCGNVASVMKVDEDLEPTFKIFSAVPDDYIRESTANHNNQRAGYFL

Test in all cases: pull-down
The target in experiment [1] is B2.
A further experiment addresses T1, GST-Sec24p (S. cerevisiae, UniProt P40482 1-926).
T1 sequence (looked up): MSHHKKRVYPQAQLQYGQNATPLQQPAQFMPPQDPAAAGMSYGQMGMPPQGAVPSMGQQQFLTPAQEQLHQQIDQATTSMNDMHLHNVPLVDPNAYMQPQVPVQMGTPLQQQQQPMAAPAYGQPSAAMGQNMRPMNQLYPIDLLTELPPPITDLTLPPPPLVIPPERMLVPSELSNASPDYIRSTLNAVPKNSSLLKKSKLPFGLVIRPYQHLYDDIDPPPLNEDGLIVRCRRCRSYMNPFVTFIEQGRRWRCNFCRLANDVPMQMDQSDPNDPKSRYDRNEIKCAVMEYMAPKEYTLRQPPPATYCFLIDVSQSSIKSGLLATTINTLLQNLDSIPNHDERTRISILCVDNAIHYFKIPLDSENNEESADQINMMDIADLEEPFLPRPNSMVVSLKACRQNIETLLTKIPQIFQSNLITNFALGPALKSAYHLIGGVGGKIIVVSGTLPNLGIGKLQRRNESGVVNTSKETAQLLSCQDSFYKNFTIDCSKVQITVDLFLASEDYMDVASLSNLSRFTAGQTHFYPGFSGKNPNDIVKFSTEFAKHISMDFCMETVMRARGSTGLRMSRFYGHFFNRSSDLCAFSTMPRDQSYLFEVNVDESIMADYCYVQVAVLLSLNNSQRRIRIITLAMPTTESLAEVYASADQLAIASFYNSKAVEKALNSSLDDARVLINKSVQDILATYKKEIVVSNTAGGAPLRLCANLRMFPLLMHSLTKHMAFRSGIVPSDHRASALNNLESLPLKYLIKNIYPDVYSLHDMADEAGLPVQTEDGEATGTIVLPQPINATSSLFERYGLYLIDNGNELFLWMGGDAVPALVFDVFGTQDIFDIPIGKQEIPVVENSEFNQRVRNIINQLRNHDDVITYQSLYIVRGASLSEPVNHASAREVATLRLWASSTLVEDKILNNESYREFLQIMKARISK

The target of another experiment is T2, GST-Lst1p (S. cerevisiae, UniProt P38810 1-929).
T2 sequence (looked up): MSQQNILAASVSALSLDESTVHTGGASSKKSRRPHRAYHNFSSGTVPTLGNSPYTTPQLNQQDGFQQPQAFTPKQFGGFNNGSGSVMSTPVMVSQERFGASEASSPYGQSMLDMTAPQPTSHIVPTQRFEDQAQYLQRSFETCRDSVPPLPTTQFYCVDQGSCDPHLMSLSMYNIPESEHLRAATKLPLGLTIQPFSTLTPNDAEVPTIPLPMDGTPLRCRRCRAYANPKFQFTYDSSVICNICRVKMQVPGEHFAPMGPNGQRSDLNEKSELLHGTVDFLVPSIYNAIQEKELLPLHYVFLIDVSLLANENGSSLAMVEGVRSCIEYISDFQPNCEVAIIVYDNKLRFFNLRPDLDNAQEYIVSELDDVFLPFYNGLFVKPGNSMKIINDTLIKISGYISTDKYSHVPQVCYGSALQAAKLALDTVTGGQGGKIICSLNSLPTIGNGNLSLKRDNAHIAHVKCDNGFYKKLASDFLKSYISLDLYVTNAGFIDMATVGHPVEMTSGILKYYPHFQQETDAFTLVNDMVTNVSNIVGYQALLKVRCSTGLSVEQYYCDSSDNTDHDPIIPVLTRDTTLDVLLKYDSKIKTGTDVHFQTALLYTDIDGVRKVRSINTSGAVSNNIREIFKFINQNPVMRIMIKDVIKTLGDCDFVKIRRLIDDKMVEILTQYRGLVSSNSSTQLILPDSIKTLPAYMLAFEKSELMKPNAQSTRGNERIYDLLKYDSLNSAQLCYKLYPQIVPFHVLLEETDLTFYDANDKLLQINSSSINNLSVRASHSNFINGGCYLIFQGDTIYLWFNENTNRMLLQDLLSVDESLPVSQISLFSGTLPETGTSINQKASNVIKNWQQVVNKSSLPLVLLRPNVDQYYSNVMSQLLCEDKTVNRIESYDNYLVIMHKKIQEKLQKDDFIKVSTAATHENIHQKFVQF

For a further experiment, the target named is T3, GST-Sec23p (S. cerevisiae, UniProt P15303 1-768).
T3 sequence (looked up): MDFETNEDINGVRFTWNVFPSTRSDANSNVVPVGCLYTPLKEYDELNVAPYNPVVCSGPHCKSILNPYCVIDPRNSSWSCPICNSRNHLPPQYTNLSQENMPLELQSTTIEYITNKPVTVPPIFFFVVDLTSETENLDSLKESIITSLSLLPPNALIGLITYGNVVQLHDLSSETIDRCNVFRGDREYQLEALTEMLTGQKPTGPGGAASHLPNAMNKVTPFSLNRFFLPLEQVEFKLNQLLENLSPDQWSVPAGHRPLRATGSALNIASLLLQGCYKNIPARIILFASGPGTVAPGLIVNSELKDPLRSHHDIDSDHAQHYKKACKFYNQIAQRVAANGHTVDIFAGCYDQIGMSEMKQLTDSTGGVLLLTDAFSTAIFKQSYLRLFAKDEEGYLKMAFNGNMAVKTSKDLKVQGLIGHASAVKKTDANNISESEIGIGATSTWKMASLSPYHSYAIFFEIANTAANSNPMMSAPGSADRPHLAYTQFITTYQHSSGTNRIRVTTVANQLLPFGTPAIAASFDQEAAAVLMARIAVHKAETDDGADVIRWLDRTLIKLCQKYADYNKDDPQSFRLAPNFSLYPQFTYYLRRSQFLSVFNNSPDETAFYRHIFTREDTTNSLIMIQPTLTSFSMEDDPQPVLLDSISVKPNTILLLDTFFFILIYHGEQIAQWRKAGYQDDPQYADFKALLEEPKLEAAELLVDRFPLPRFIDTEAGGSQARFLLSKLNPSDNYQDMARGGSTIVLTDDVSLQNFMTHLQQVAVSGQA

A further experiment concerns the target T4, GST-Sec31p (aa 1–500) (S. cerevisiae, UniProt P38968 1-500).
T4 sequence (looked up): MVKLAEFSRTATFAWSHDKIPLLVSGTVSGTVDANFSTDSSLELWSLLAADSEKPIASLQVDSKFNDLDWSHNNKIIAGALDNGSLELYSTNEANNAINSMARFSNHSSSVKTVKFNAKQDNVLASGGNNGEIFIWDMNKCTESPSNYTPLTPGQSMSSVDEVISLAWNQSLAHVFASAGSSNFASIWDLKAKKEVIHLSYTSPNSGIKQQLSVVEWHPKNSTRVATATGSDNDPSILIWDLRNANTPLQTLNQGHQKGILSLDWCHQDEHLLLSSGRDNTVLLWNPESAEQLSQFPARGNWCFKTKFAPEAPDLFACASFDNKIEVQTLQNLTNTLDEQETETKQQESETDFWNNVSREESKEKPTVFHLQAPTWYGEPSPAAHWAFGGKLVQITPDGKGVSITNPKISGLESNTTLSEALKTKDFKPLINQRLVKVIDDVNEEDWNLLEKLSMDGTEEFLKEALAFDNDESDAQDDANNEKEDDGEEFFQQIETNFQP

B1: GST-Sec31p (aa 1115–1273) (domain or fragment, S. cerevisiae, UniProt P38968 1115-1273, looked up)
chain: RSNKLASIEQNPSQGATYPPTLSSSASPLQPSQPPTLASQVNTSAENVSHEIPADQQPIVDFLKEELARVTPLTPKEYSKQLKDCDKRLKILFYHLEKQDLLTQPTIDCLHDLVALMKEKKYKEAMVIHANIATNHAQEGGNWLTGVKRLIGIAEATLN
On to B1, for which the binding result in experiment [1] is on record as “binds”.

Regarding B2, the binding result with GST-Sec24p, in the experiment with GST-Lst1p, in the experiment with GST-Sec23p and with GST-Sec31p (aa 1–500) was “binds” throughout.
